The record followed here is paper PMC8191316, “Structural basis for CD97 recognition of the decay-accelerating factor CD55 suggests mechanosensitive activation of adhesion GPCRs” (The Journal of Biological Chemistry, 2021).

B1: CD97 EGF_(1,2,5) fragment, WT, without His-tag (SPR construct with TEV site) [human] / CD55 SCR1–4 domains (35–285), His-tagged [human] (parent)
chain 1: QDSRGCARWCPQNSSCVNATACRCNPGFSSFSEIITTPTETCDDINECATPSKVSCGKFSDCWNTEGSYDCVCSPGYEPVSGAKTFKNESENTCQDVDECSSGQHQCDSSTVCFNTVGSYSCRCRPGWKPRHGIPNNQKDTVCED
chain 2: DCGLPPDVPNAQPALEGRTSFPEDTVITYKCEESFVKIPGEKDSVICLKGSQWSDIEEFCNRSCEVPTRLNSASLKQPYITQNYFPVGTVVEYECRPGYRREPSLSPKLTCLQNLKWSTAVEFCKKKSCPNPGEIRNGQIDVPGGILFGATISFSCNTGYKLFGSTSSFCLISGSSVQWSDPLPECREIYCPAPPQIDNGIIQGERDHYGYRQSVTYACNKGFTMIGEHSIYCTVNNDEGEWSGPPPECRG

The term koff denotes the rate constant with which the complex falls apart. By kon is commonly meant a measure of how fast the partners come together.

Variants of B1 are the subject of the first assay. Description: SPR. Conditions: with CD55 SCR1–4 domains (35–285), His-tagged CD55 immobilized on NTA chip, CD97(E86A) titrated at 0.2, 0.5, 1, 2, 5, 10, 20, 30 µM.
On to chain 1 QDSRGCARWCPQNSSCVNATACRCNPGFSSFSEIITTPTETCDDINECATPSKVSCGKFSDCWNTAGSYDCVCSPGYEPVSGAKTFKNESENTCQDVDECSSGQHQCDSSTVCFNTVGSYSCRCRPGWKPRHGIPNNQKDTVCED [chain 1 E66A], for which the koff was 1.41 10^-3 s-1.

The same assay, now with this note: with CD55 SCR1–4 domains (35–285), His-tagged CD55 immobilized on NTA chip, CD97(E86A) titrated at 0.2, 0.5, 1, 2, 5, 10, 20, 30 µM, parent: 546.
chain 1 QDSRGCARWCPQNSSCVNATACRCNPGFSSFSEIITTPTETCDDINECATPSKVSCGKFSDCWNTAGSYDCVCSPGYEPVSGAKTFKNESENTCQDVDECSSGQHQCDSSTVCFNTVGSYSCRCRPGWKPRHGIPNNQKDTVCED [chain 1 E66A]: the kon is 80.1 M⁻¹ s⁻¹.

Staying with this assay, now noted: with CD55 SCR1–4 domains (35–285), His-tagged CD55 immobilized on NTA chip, CD97(V137A) titrated at 0.2, 0.5, 1, 2, 5, 10, 20 µM.
In the case of chain 1 QDSRGCARWCPQNSSCVNATACRCNPGFSSFSEIITTPTETCDDINECATPSKVSCGKFSDCWNTEGSYDCVCSPGYEPVSGAKTFKNESENTCQDVDECSSGQHQCDSSTVCFNTAGSYSCRCRPGWKPRHGIPNNQKDTVCED [chain 1 V117A], the koff is 1.63 10^-3 s-1.

The assay is the same for the next values; noted with them: with CD55 SCR1–4 domains (35–285), His-tagged CD55 immobilized on NTA chip, CD97(V137A) titrated at 0.2, 0.5, 1, 2, 5, 10, 20 µM, parent: 546.
With chain 1 QDSRGCARWCPQNSSCVNATACRCNPGFSSFSEIITTPTETCDDINECATPSKVSCGKFSDCWNTEGSYDCVCSPGYEPVSGAKTFKNESENTCQDVDECSSGQHQCDSSTVCFNTAGSYSCRCRPGWKPRHGIPNNQKDTVCED [chain 1 V117A], the kon stood at 64 M⁻¹ s⁻¹.

Staying with this assay, now noted: with CD55 SCR1–4 domains (35–285), His-tagged CD55 immobilized on NTA chip, CD97(D63L) titrated at 0.2, 0.5, 1, 5, 10, 20 µM.
For the variant chain 1 QDSRGCARWCPQNSSCVNATACRCNPGFSSFSEIITTPTETCLDINECATPSKVSCGKFSDCWNTEGSYDCVCSPGYEPVSGAKTFKNESENTCQDVDECSSGQHQCDSSTVCFNTVGSYSCRCRPGWKPRHGIPNNQKDTVCED [chain 1 D43L], the koff was 0.968 10^-3 s-1.

Staying with this assay, now noted: with CD55 SCR1–4 domains (35–285), His-tagged CD55 immobilized on NTA chip, CD97(D63L) titrated at 0.2, 0.5, 1, 5, 10, 20 µM, parent: 546.
Regarding chain 1 QDSRGCARWCPQNSSCVNATACRCNPGFSSFSEIITTPTETCLDINECATPSKVSCGKFSDCWNTEGSYDCVCSPGYEPVSGAKTFKNESENTCQDVDECSSGQHQCDSSTVCFNTVGSYSCRCRPGWKPRHGIPNNQKDTVCED [chain 1 D43L], the kon is 11.2 M⁻¹ s⁻¹.

Staying with this assay, now noted: with CD55 SCR1–4 domains (35–285), His-tagged CD55 immobilized on NTA chip, CD97(D81A) titrated at 0.2, 0.5, 1, 2, 5, 10, 20 µM.
Turning to chain 1 QDSRGCARWCPQNSSCVNATACRCNPGFSSFSEIITTPTETCDDINECATPSKVSCGKFSACWNTEGSYDCVCSPGYEPVSGAKTFKNESENTCQDVDECSSGQHQCDSSTVCFNTVGSYSCRCRPGWKPRHGIPNNQKDTVCED [chain 1 D61A], the koff was 1.22 10^-3 s-1.

Still in this assay, the particulars now being: with CD55 SCR1–4 domains (35–285), His-tagged CD55 immobilized on NTA chip, CD97(D81A) titrated at 0.2, 0.5, 1, 2, 5, 10, 20 µM, parent: 546.
Take chain 1 QDSRGCARWCPQNSSCVNATACRCNPGFSSFSEIITTPTETCDDINECATPSKVSCGKFSACWNTEGSYDCVCSPGYEPVSGAKTFKNESENTCQDVDECSSGQHQCDSSTVCFNTVGSYSCRCRPGWKPRHGIPNNQKDTVCED [chain 1 D61A]: the kon worked out at 20.2 M⁻¹ s⁻¹.
